Measured values reported in the supplement of paper PMC9732359.
± gives the uncertainty stated by the source.

Experiment: protein stability index of a GFP-peptide fusion (yeast GPS) (PSI 1-4); higher = more stable; sorted into four equal gates, so the index is relative within each strain
Conditions: doa10∆
Procedure, shortened: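 For each peptide, the protein stability index sums the read frequency in every gate after multiplying it by the gate number. Read frequencies came from plasmids that were PCR-amplified from each gate and Illumina-sequenced, with reads assigned to strains by barcodes. The gates were four equal bins of GFP/Cherry fluorescence ratio applied to mid-log yeast in leucine-free medium carrying a pooled library of tiled 17-residue yeast protein peptides fused downstream of GFP on a Cherry-expressing plasmid.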
In the case of DDDEIVMPVPNVRSSVL [SKP1], the protein stability index is reported as 2.42 ± 0.053.
Work on DDENEPKRKRRLPVSED [YOR098C/NUP1] yielded a protein stability index of 3.34 ± 0.1.
DDFTNELKAELDRYKRE [SEM1] gave a protein stability index of 3.09 ± 0.17.
Sequence DDIFIPQNMLFEGCYYT [RPC25] has a protein stability index of 2.51 ± 0.17.
For DDIFIRYLTLLSNEFTA [ECM29], the protein stability index was 2.14 ± 0.056.
Sequence DDLPYYVNALADVLYKT [QCR2] has a protein stability index of 2.78 ± 0.061.
Work on DDPSKVRLLCRSDGMGN [YLR335W/NUP2] yielded a protein stability index of 2.94 ± 0.26.
For DDQLKQRRQNIRDLEKL [RPT4], the protein stability index was 2.81 ± 0.23.
With DDSLNRLAQNDGLLKNV [RPS21A] the protein stability index was 2.77 ± 0.15.
With DDYEDQDDDDYVDTATA [IRR1] the protein stability index was 3.14 ± 0.08.
For DDYILSGESVMDRDSES [SRB4], the protein stability index was 3.45 ± 0.19.
DEEASYKLGKVKKVQLG [RPS4A] gave a protein stability index of 2.96 ± 0.1.
With DEEELGQRTAYHSKRDA [RPB2] the protein stability index was 3.4 ± 0.1.
DEEESNDEKQKAQDVDV [RPN13] gave a protein stability index of 3.33 ± 0.12.
Work on DEEIIQLHFSLLDEEAE [RPO21] yielded a protein stability index of 2.86 ± 0.078.
Sequence DEFPSELSDSDRQIINE [SIR4] has a protein stability index of 3.53 ± 0.27.
DEGKEIPATIFDKVIYH [TAF14] gave a protein stability index of 3.13 ± 0.077.
For DEIHIPAPSKPVIDYEL [BRR2], the protein stability index was 3.19 ± 0.073.
With DEKDYLTNQQPKNLSTP [CSE2] the protein stability index was 3.04 ± 0.083.
For DELDQEILNLSTQELQT [RPT5], the protein stability index was 3.21 ± 0.084.
In the case of DELRKQELISKAFTNWN [ISW2], the protein stability index is reported as 2.04 ± 0.065.
Work on DENDSKKNNAASELANP [YAR002W/NUP60] yielded a protein stability index of 2.97 ± 0.078.
With DENKDDELVKLLLDNGF [SRP68] the protein stability index was 3.05 ± 0.11.
DEPMTTFYKCVNCGHRW [RPC11] showed a protein stability index of 2.84 ± 0.16.
DEQQREDNNDAVNSIMA [ECM29] gave a protein stability index of 3.16 ± 0.1.
Work on DESLKDEATVPNTRDAE [SWI3] yielded a protein stability index of 3.16 ± 0.074.
With DESNDIDMIADENGTNS [RPC37] the protein stability index was 2.44 ± 0.1.
Sequence DEVTIRRTVGLKKDDYQ [SMC3] has a protein stability index of 2.66 ± 0.12.
Work on DFDGDEMNLHVPQTEEA [RPO31] yielded a protein stability index of 3.03 ± 0.071.
Sequence DFDLFKEVLPDLQNLNL [YJL039C/NUP192] has a protein stability index of 3.44 ± 0.095.
For DFIQNVGRLWDQTFPIN [ECM29], the protein stability index was 3.13 ± 0.062.
DFKPPYIYSHVNKVPQN [SWP82] gave a protein stability index of 2.16 ± 0.12.
DFLRKATAFNKTRGPFH [RPL16A] gave a protein stability index of 2.19 ± 0.16.
For DFVRKGGLQKGKLVVSQ [SIR3], the protein stability index was 3.14 ± 0.079.
DGAYALSASWDKTLRLW [ASC1] gave a protein stability index of 3.28 ± 0.064.
Work on DGDASKPAFSFGAKSDE [YJL041W/NSP1] yielded a protein stability index of 3.32 ± 0.064.
DGFDPRGNIKVMFATNR [RPT1] gave a protein stability index of 3.25 ± 0.17.
In the case of DGFNKTFHDELNLKFKE [YML103C/NUP188], the protein stability index is reported as 2.41 ± 0.066.
In the case of DGKGAVYSFDPVGSYER [PRE7], the protein stability index is reported as 3.31 ± 0.18.
Sequence DGLLEYLEDIIGTANYK [SMC4] has a protein stability index of 2.38 ± 0.072.
Work on DGRVNRFYELEESLTVL [YJR042W/NUP85] yielded a protein stability index of 2.28 ± 0.12.
Sequence DGSAIEDDDIRSRMLPT [SNF5] has a protein stability index of 3.19 ± 0.086.
DHEFVLISLIMTTWRKL [YMR129W/POM152] gave a protein stability index of 1.3 ± 0.12.
DHIAIDWEDEEKYEDED [DSN1] gave a protein stability index of 2.52 ± 0.15.
For DHINWEHIKQDYVASLN [NSL1], the protein stability index was 3.12 ± 0.069.
In the case of DHLVSSIPMGGQSINDS [ARP9], the protein stability index is reported as 2.78 ± 0.11.
With DHTVDEIDHVEYYVMMD [SRB8] the protein stability index was 3.01 ± 0.083.
DHVDGSSEFVSQDTKVI [RRP46] showed a protein stability index of 2.64 ± 0.056.
DHYESNQLVAKLLLLRI [SRB8] showed a protein stability index of 2.84 ± 0.065.
Work on DIDGIMDNPRKLSKILR [SNU114] yielded a protein stability index of 3.01 ± 0.074.
For DIFITPTPVVTISEKEQ [SSN2], the protein stability index was 1.76 ± 0.079.
DIIWLQRDLGLYVVGLF [RRP6] gave a protein stability index of 2.27 ± 0.062.
DIKAPSTFENRNVGKTL [RPS1A] showed a protein stability index of 2.95 ± 0.074.
With DIKVLKRQLIKERNQKF [YIL149C/MLP2] the protein stability index was 2.7 ± 0.084.
With DILAKLFSLEKPNLNYF [SWI1] the protein stability index was 2.02 ± 0.056.
With DILSKLYLLLARVFEIW [SNF11] the protein stability index was 2.15 ± 0.044.
Sequence DIPTIADEHFWADNYER [BRN1] has a protein stability index of 3.14 ± 0.2.
Sequence DIRKFLDGIYVSHKGFI [RPL9A] has a protein stability index of 1.39 ± 0.1.
For DKKASMIISGSRDKTIK [ASC1], the protein stability index was 2.2 ± 0.17.
In the case of DKLLDPTTVSYIFCISR [SCL1], the protein stability index is reported as 2.97 ± 0.045.
Work on DKLSVSEISDGKLKRCS [SIN4] yielded a protein stability index of 3.27 ± 0.15.
Work on DKSLDSSNASFNNQGKL [MED1] yielded a protein stability index of 2.98 ± 0.045.
Sequence DKYHEQWIKFLLHTLYL [SSN8] has a protein stability index of 2.62 ± 0.1.
DLDETTQTFNGSIFTHE [YML031W/NDC1] gave a protein stability index of 2.96 ± 0.05.
Sequence DLETLTMHTKTYAAEIA [RPL32] has a protein stability index of 2.99 ± 0.061.
With DLGIKYDPSIGIFGMDF [RPL11A] the protein stability index was 2.85 ± 0.04.
Sequence DLIHKSEAFPSLQSCSV [SMC4] has a protein stability index of 2.53 ± 0.085.
DLISEILKWVQWSRIVL [MED1] gave a protein stability index of 3.48 ± 0.12.
Work on DLKASQRVCLRSDSYML [RPT6] yielded a protein stability index of 2.92 ± 0.1.
DLKFEPQGRQSTTFADC [RPC40] gave a protein stability index of 3.37 ± 0.19.
DLKKFTSTITKYKQLLL [RPN3] gave a protein stability index of 2.92 ± 0.089.
In the case of DLKKKLNSLKDERSQGE [SMC4], the protein stability index is reported as 3.43 ± 0.14.
For DLKLLFNTEAEQTVSAV [RGR1], the protein stability index was 2.84 ± 0.088.
DLLKFENISLAEFILKN [BRR2] showed a protein stability index of 2.94 ± 0.082.
Work on DLLVIDSHKRIPDMSKN [SNU114] yielded a protein stability index of 2.99 ± 0.073.
In the case of DLNNAVQKRDEVKEQLG [SMC4], the protein stability index is reported as 2.95 ± 0.055.
Sequence DLNTRISVIETIRVVTE [RPN5] has a protein stability index of 1.64 ± 0.15.
DLPDTEGLELLGWIHTQ [PRP8] showed a protein stability index of 2.75 ± 0.093.
For DLPISSTDNEAITISNS [SMC1], the protein stability index was 2.8 ± 0.079.
With DLQYLGEFSGKNFSPTK [RRP6] the protein stability index was 3.46 ± 0.063.
Work on DLRLIKVPQQAAGKRIS [SMC1] yielded a protein stability index of 1.36 ± 0.099.
With DLSADKPTSPFIDSICK [SRB8] the protein stability index was 2.12 ± 0.034.
Sequence DLSLNIHPIPSVTVSQG [YMR129W/POM152] has a protein stability index of 1.98 ± 0.055.
With DLSYNFNVHEVPRAALE [YMR129W/POM152] the protein stability index was 2.91 ± 0.057.
DLTFKLADILKANISLE [RPO21] gave a protein stability index of 2.49 ± 0.068.
DLTQLLEKERSILDDIK [SMC4] gave a protein stability index of 3.22 ± 0.14.
DMAILERYYELAFDKLN [ARP7] gave a protein stability index of 1.3 ± 0.09.
With DMAKLKKMMNTSDSEST [SWI3] the protein stability index was 1.81 ± 0.059.
DMDAESNESQNGKDSEI [SMC3] gave a protein stability index of 3.42 ± 0.12.
For DMKEYDSDKGSKLNELK [SMC2], the protein stability index was 3.25 ± 0.14.
For DMLEHINLAMNESSLAL [SRB4], the protein stability index was 1.49 ± 0.094.
With DMPSLRLIDLSGCENIT [GRR1] the protein stability index was 2.33 ± 0.083.
With DNATLTELVDKANIFQV [SSN2] the protein stability index was 3.09 ± 0.15.
For DNDGFSFLMRQFTRFFL [ECM29], the protein stability index was 1.63 ± 0.047.
DNDIMNLGSRTKNNTQA [SSN3] gave a protein stability index of 2.91 ± 0.038.
DNIGEIDESLFNLLILS [YCG1] gave a protein stability index of 2.96 ± 0.13.
Work on DNVIVINHKINNKITQL [SIR3] yielded a protein stability index of 2.08 ± 0.057.
For DNVSKNALDKLRNNLNS [YCG1], the protein stability index was 3.23 ± 0.12.
In the case of DPALLRPGRIDRKIEFP [RPT6], the protein stability index is reported as 3.18 ± 0.075.
With DPETTATQKESLEMVPK [RGR1] the protein stability index was 3.12 ± 0.063.
With DPGRYNKVCRIEAASTT [RPB8] the protein stability index was 2.41 ± 0.093.
DPKFRRNHKHALHGTAK [RPL29] showed a protein stability index of 2.34 ± 0.025.
Work on DPKFVNSLLAKLKDSKK [YML103C/NUP188] yielded a protein stability index of 2.54 ± 0.2.
With DPKTSLRIVKPTVSLTI [RPC82] the protein stability index was 2.3 ± 0.095.
Work on DPPIIIFINYKQTADWL [PRP28] yielded a protein stability index of 1.43 ± 0.031.
